Here are results for one molecule from paper PMC10838295.

In this assay the target is pyrrolated BSA (pyrBSA), P02769. The experiment in a line: ELISA. The following applies: chain shown with the change, left panel, antigen pyrBSA, read off a plot.
Chain of pyrrolated BSA (pyrBSA), P02769 (P02769 25-607): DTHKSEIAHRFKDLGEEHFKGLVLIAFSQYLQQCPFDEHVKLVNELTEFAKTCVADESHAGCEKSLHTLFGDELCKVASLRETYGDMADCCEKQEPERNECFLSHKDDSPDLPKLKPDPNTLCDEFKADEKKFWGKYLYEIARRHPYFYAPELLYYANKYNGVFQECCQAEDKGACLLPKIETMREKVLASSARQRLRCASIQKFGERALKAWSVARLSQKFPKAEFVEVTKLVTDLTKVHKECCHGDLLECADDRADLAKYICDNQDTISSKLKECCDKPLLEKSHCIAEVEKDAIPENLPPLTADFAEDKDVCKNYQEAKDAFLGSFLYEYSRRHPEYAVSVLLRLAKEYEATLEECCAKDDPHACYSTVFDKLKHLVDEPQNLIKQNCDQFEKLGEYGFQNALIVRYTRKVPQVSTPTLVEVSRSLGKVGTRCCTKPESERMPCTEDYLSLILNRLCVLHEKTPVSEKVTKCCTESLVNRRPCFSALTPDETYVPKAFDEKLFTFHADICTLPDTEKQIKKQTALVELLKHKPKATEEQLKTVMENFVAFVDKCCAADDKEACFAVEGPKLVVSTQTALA

B1: VH DO1 (VH-His6 of scFv DO1) R97A (protein)
chain: EVQLQQSGPELVKPGASVKMSCKASGYTFTSYVMHWVKQKPGQGLEWIGYINPHNDGTKYNEKFKGKATLTSDKSSSTAYMELSSLTSEDSAVYYCARKLAGFAYWGQGTLVTVSS
Regarding B1, the response is 0.65 Abs (490 nm) (VH about 6.4 nM (4th point of the titration, read from the log x axis), parent: est. 1.7) and 1.9 Abs (490 nm) (VH about 16 nM (5th point of the titration, read from the log x axis), parent: est. 3.1).
